Patent US12121566B2, “Methods for treating gout” (Horizon Therapeutics USA, Inc., priority 2019, dated 2024)
Read-outs that look alike come from different tables or passages of the source.

What was measured:
[1] = Pharmacokinetics after single intravenous infusions, serum uricase enzyme activity; type: in vivo, human; conditions: single intravenous infusions of 0.5 mg to 12 mg, 23 patients
Description: Pegloticase levels were determined in serum based on measurements of uricase enzyme activity.

[2] = tested on: patients with chronic gout refractory to conventional therapy; conditions: cited from earlier work
[3] = tested on: patients with symptomatic gout; conditions: after doses of 4 to 12 mg, within 24 to 72 hours, from 11.1±0.6 mg/dL; cited from earlier work
[4] = tested on: patients with chronic gout refractory to conventional therapy; test: Adverse reactions in pre-marketing controlled clinical trials of KXX; type: in vivo, human
Description: During the second 3 months of treatment, a lower proportion of pegloticase-treated patients experienced flares than patients receiving placebo. The incidence of flares during this time period was lowest in the group receiving pegloticase 8 mg every 2 weeks than in the group who received pegloticase 8 mg every 4 weeks, as was the incidence of infusion-related reactions (26% with biweekly dosing vs. 40% with the every-4-week dosing regimen). Both infusion reactions (IRs) and gout flares were least common in patients with sustained urate-lowering responses to treatment and those who received bi-weekly treatment. In most pegloticase-treated patients with IRs, a loss of response to pegloticase (return to SUA>6 mg/dL) preceded the time of the first IR (20/21; 95%).
The most commonly reported serious adverse reactions from pre-marketing controlled clinical trials were anaphylaxis, which occurred at a frequency of 6.5% in patients treated with KXX 8 mg every 2 weeks, compared to none with placebo; infusion reactions, which occurred at a frequency of 26% in patients treated with KXX 8 mg every 2 weeks, compared to 5% treated with placebo; and gout flares, which were more common during the first 3 months of treatment with KXX compared with placebo. All patients in pre-marketing controlled clinical trials were pre-treated with an oral antihistamine, intravenous corticosteroid and/or acetaminophen to prevent anaphylaxis and infusion reaction.
The data described below reflect exposure to KXX in patients with chronic gout refractory to conventional therapy in two replicate randomized, placebo-controlled, double-blind 6-month clinical trials: 85 patients were treated with KXX 8 mg every 2 weeks; 84 patients were treated with KXX 8 mg every 4 weeks; and 43 patients were treated with placebo. These patients were between the ages of 23 and 89 years (average 55 years); 173 patients were male and 39 were female; and 143 patients were White/Caucasian, 27 were Black/African American, 24 were Hispanic/Latino and 18 were all other ethnicities. Common co-morbid conditions among the enrolled patients included hypertension (72%), dyslipidemia (49%), chronic kidney disease (28%), diabetes (24%), coronary artery disease (18%), arrhythmia (16%), and cardiac failure/left ventricular dysfunction (12%).
Diagnostic criteria of anaphylaxis were skin or mucosal tissue involvement, and, either airway compromise, and/or reduced blood pressure with or without associated symptoms, and a temporal relationship to KXX or placebo injection with no other identifiable cause. Using these clinical criteria, anaphylaxis was identified in 14 (5.1%) of 273 total patients studied in the clinical program of IV KXX. The frequency was 6.5% for the every 2-week dosing regimen (8 of 123 patients), and 4.8% for the 4-week dosing frequency (6 of 126) of KXX. There were no cases of anaphylaxis in patients receiving placebo.

[5] = Stability of pegloticase diluted in infusion bags; type: physicochemical; conditions: at 2° C. to 8° C. and at room temperature (20° C. to 25° C.)
Description: Pegloticase-diluted in infusion bags is stable for 4 hours at 2° C. to 8° C. (36° F. to 46° F.) and at room temperature (20° C. to 25° C., 68° F. to 77° F.); however, it is recommended that the diluted solution be stored under refrigeration, not frozen, protected from light, and used within 4 hours of dilution. Before administration, the diluted solution of pegloticase should be allowed to reach room temperature. Pegloticase in a vial or in an IV infusion fluid should never be subjected to artificial heating.
KXX diluted in infusion bags is stable for 4 hours at 2° to 8° C. (36° to 46° F.) and at room temperature (20° to 25° C., 68° to 77° F.). However, it is recommended that diluted solutions be stored under refrigeration, not frozen, protected from light, and used within 4 hours of dilution. Before administration, allow the diluted solution of KXX to reach room temperature. KXX in a vial or in an intravenous infusion fluid should never be subjected to artificial heating (e.g., hot water, microwave).

[6] = KXX 8 mg every 2 weeks (N = 85)

pegloticase
maximum serum concentrations of pegloticase versus dose [1]: increased in proportion to the dose administered
incidence of infusion-related reactions ([2]; pooled Phase 3, 8 mg biweekly dosing): 26%
incidence of infusion-related reactions ([2]; pooled Phase 3, 8 mg every-4-week dosing regimen): 40%
patients with IRs in whom loss of response (return to SUA >6 mg/dL) preceded the first IR ([2]; pooled Phase 3, 20/21): 95%
plasma urate concentration (pUAc), mean±SD [3]: 1.0±0.5 mg/dL
frequency of anaphylaxis ([4]; 4-week dosing frequency (6 of 126)): 4.8%
anaphylaxis in total patients studied in the clinical program of IV KXX ([4]; 14 of 273 total patients): 5.1%
patients with infusion reactions ([4]; KXX 8 mg every 2 weeks): 26%
Adverse reaction: Anaphylaxis [4, 6]: 4 (5%) N (%)
Adverse reaction: Chest Pain [4, 6]: 5 (6%) N (%)
Adverse reaction: Constipation [4, 6]: 5 (6%) N (%)
Adverse reaction: Contusion or Ecchymosis [4, 6]: 9 (11%) N (%)
Adverse reaction: Gout Flare [4, 6]: 65 (77%) N (%)
Adverse reaction: Infusion reaction [4, 6]: 22 (26%) N (%)
Adverse reaction: Nasopharyngitis [4, 6]: 6 (7%) N (%)
Adverse reaction: Nausea [4, 6]: 10 (12%) N (%)
Adverse reaction: Vomiting [4, 6]: 4 (5%) N (%)
patients with infusion reactions ([4]; KXX 8 mg every 4 weeks): 41%
cases of congestive heart failure exacerbation ([4]; during the trials, KXX 8 mg every 2 weeks): Two
frequency of anaphylaxis ([4]; every 2 weeks dosing regimen (8 of 123 patients)): 6.5%
percentage of patients with any gout flare ([4]; first 3 months, KXX 8 mg every 2 weeks): 74%
percentage of patients with any gout flare ([4]; first 3 months, KXX 8 mg every 4 weeks): 81%
infusion reaction manifestation: chest discomfort, frequency ([4]; human, in vivo): 9.5%
infusion reaction manifestation: chest pain, frequency ([4]; human, in vivo): 9.5%
infusion reaction manifestation: dyspnea, frequency ([4]; human, in vivo): 7.1%
infusion reaction manifestation: erythema, frequency ([4]; human, in vivo): 9.5%
infusion reaction manifestation: pruritus, frequency ([4]; human, in vivo): 9.5%
infusion reaction manifestation: urticaria, frequency ([4]; human, in vivo): 10.6%
infusion reactions occurring with the first infusion ([4]; human, in vivo): approximately 3%
infusion reactions that occurred during the time of infusion ([4]; human, in vivo): approximately 91%
reactions in patients with glucose-6-phosphate dehydrogenase (G6PD) deficiency ([4]; human, in vivo): Life threatening hemolytic reactions and methemoglobinemia have been reported
percentage of patients with any gout flare ([4]; subsequent 3 months, KXX 8 mg every 2 weeks): 41%
percentage of patients with any gout flare ([4]; subsequent 3 months, KXX 8 mg every 4 weeks): 57%
stability diluted in infusion bags [5]: 4 h
